Results taken from patent publication US20240376218A1 (published 2024).
Where a chain is given by its changes, count along the chain named.

Assays:
Assay in all cases: cell-based or functional assay
human CCR8 [1] = target: T1, human CCR8 (human, UniProt P51685 1-355)
murine CCR8 [2] = target: T2, murine CCR8 (mouse, UniProt P56484 1-353)
T2 sequence: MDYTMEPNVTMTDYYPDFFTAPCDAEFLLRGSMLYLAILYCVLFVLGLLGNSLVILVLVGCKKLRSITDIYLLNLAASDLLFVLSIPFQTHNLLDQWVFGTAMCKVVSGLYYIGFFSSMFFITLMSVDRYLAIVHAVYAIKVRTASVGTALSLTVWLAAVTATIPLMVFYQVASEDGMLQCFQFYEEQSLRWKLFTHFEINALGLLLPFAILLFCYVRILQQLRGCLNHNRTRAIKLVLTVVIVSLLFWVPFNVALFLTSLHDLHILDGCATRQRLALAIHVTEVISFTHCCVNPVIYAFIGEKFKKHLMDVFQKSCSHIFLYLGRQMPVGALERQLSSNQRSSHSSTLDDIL

human CCR8 [3] = target: human CCR8 (human, UniProt P51685 1-355); remark: listed apart in the source
human CCR8 [4] = target: T1, human CCR8; remark: listed apart in the source
murine CCR8 [5] = target: T3, murine CCR8 (mouse, UniProt P56484 1-353); remark: listed apart in the source
T3 sequence: T2 sequence

murine CCR8 [6] = target: T2, murine CCR8; remark: listed apart in the source

B1: TPP-18205 (antibody, human IgG1, lambda, V domains shown)
VH: EVQLLESGGGLVQPGGSLRLSCAASGFTFSSYAMSWVRQAPGKGLEWVSGIRWNSGSKGYAGSVKGRFTISRDNSKNTLYLQMNSLRAEDTAVYYCVRSGNYYVGYHGMDVWGQGTLVTVSS
VL: QSVLTQPPSASGTPGQRVTISCSGGNSNIGTYFVSWYQQLPGTAPKLLIYTNNQRPSGVPDRFSGSKSGTSASLAISGLRSEDEADYYCETWDSNTRVFGGGTKLTVLG
Human CCR8 [1]
  Ca flux assay IC50 (nM), block of signaling induced by CCL1 at 80 ng/ml; CHO cells expressing human CCR8: 1.6 nM

B2: TPP-17577 (antibody, human IgG1, lambda, V domains shown)
VH: EVQLLESGGGLLQPGGSLRLSCAASGFTFSNAWMSWVRQAPGKGLEWVAVISYDGRNKYSADSVKGRFTISRDNSKNTLYLQMNSLRAEDTAVYYCARGLPYGYWGQGTLVTVSS
VL: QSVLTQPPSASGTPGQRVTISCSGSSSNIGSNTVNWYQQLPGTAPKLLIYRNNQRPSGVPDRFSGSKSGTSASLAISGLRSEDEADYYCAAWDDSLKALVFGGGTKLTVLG
Human CCR8 [1]
  Ca flux assay IC50 (nM), block of signaling induced by CCL1 at 80 ng/ml; CHO cells expressing human CCR8: 93.8 nM

B3: TPP-14095 (antibody, human IgG1, lambda, V domains shown)
VH: EVQLLESGGGLVQPGGSLRLSCAASGFTFSSYGMHWVRQAPGKGLEWVSAISGSGGSTYYADSVKGRFTISRDNSKNTLYLQMNSLRAEDTAVYYCARGRQLGSWGQGTLVTVSS
VL: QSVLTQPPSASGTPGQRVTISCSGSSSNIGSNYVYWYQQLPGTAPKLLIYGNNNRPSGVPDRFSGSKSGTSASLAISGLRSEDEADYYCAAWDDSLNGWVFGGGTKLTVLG
Murine CCR8 [2]
  Ca flux assay IC50 (nM), block of signaling induced by CCL1 at 40 ng/ml; CHO cells expressing murine CCR8: 1.65 nM

B4: TPP-20955, afucosylated (antibody, human IgG1, lambda, V domains shown)
VH: EVQLLESGGGLVQPGGSLRLSCAASGFTFSSYGMHWVRQAPGKGLEWVSAIKWGGGSHGYADSVKGRFTISRDNSKNTLYLQMNSLRAEDTAVYYCARGHHKGYDGRFFDYWGQGTLVTVSS
VL: QSVLTQPPSVSGAPGQRVTISCTGSSSNIGAGYNVHWYQQLPGTAPKLLIYTNNRRPSGVPDRFSGSKSGTSASLAISGLRSEDEADYYCAAWDASLSGWVFGGGTKLTVLG
modifications: afucosylated (no fucose on the N-glycan at N297)
Human CCR8 [3]
  ADCC Max Response (%); activated human Tregs (Donor 1100) as target cells, NK92v effector cells: 91%
  ADCC hTreg EC50 (pM); activated human Tregs (Donor 1100) as target cells, NK92v effector cells: 5.82 pM

B5: TPP-17578 (antibody, human IgG1, lambda, V domains shown)
VH: EVQLLESGGGLVQPGGSLRLSCAASGFTFSNAWMSWVRQAPGKGLEWVSGINWNGGSTGYADSVKGRFTISRDNSKNTLYLQMNSLRAEDTAVYYCVRTYSGHYGPYFDNWGQGTLVTVSS
VL: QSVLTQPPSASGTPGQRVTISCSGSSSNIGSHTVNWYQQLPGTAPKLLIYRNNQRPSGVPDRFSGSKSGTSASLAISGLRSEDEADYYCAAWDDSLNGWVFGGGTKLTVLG
Human CCR8 [1]
  Ca flux assay IC50 (nM), block of signaling induced by CCL1 at 80 ng/ml; CHO cells expressing human CCR8: 4.53 nM

B6: TPP-21045 (antibody, human IgG1, lambda, V domains shown)
VH: B5 VH with N31S, N52S, N54S, D62L, V97A, Y107F, N110Y
VL: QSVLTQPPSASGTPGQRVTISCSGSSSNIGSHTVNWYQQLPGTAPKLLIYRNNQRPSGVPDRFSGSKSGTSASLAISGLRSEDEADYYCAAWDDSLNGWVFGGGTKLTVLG
Human CCR8 [4]
  Ca flux assay IC50 (nM), block of signaling induced by CCL1 at 60 ng/ml; CHO cells expressing human CCR8: 0.29 nM

B7: TPP-15285 (antibody, mouse IgG2a)
heavy: EVQLLESGGGLVQPGGSLRLSCAASGFTFSDYGVHWVRQAPGKGLEWVSGVSWNGSRTHYADSVKGRFTISRDNSKNTLYLQMNSLRAEDTAVYYCVTRGAWGQGTLVTVSSAKTTAPSVYPLAPVCGDTTGSSVTLGCLVKGYFPEPVTLTWNSGSLSSGVHTFPAVLQSDLYTLSSSVTVTSSTWPSQSITCNVAHPASSTKVDKKIEPRGPTIKPCPPCKCPAPNLLGGPSVFIFPPKIKDVLMISLSPIVTCVVVDVSEDDPDVQISWFVNNVEVHTAQTQTHREDYNSTLRVVSALPIQHQDWMSGKEFKCKVNNKDLPAPIERTISKPKGSVRAPQVYVLPPPEEEMTKKQVTLTCMVTDFMPEDIYVEWTNNGKTELNYKNTEPVLDSDGSYFMYSKLRVEKKNWVERNSYSCSVVHEGLHNHHTTKSFSRTPGK
light: QSVLTQPPSASGTPGQRVTISCSGSSFNIGSHFVYWYQQLPGTAPKLLIYKNNQRPSGVPDRFSGSKSGTSASLAISGLRSEDEADYYCAAWDDSLNGPVFGGGTKLTVLGQPKSSPSVTLFPPSSEELETNKATLVCTITDFYPGVVTVDWKVDGTPVTQGMETTQPSKQSNNKYMASSYLTLTARAWERHSSYSCQVTHEGHTVEKSLSRADCS
Murine CCR8 [5]
  ADCC EC50 (pM); murine CCR8 expressing HEK293 target cells, primary murine NK effector cells: 111 pM

B8: TPP-15285 (antibody, mouse IgG2a)
heavy: B7 heavy
light: B7 light
Murine CCR8 [6]
  ADCP EC50 (pM); murine CCR8 expressing HEK293 target cells, murine bone marrow derived M2 macrophages: 402 pM
